{"source": "patent US20240254204A1", "key": {"SARS-CoV-1 [1]": {"molecular_target": "SARS-CoV-1"}, "[2]": {"molecular_target": "SARS-CoV-1 RBD (SARS-CoV)", "assay": "ELISA, 100 ng coated RBD, anti-human IgG-HRP; also: unit not given here"}, "[3]": {"molecular_target": "SARS-CoV-2 RBD (SARS-CoV-2)", "assay": "ELISA, 100 ng coated RBD, anti-human IgG-HRP"}, "[4]": {"molecular_target": "SARS-CoV-2 RBD (SARS-CoV-2)", "assay": "sVNT, cPass kit with SARS-CoV-2 RBD-HRP; also: test concentration or dose not given here"}, "[5]": {"molecular_target": "SARS-CoV-1 RBD (SARS-CoV)", "assay": "sVNT, cPass kit format with SARS-CoV-1 RBD-HRP; also: test concentration or dose not given here"}, "SARS-CoV-2 Mu [6]": {"molecular_target": "SARS-CoV-2 Mu"}, "[7]": {"molecular_target": "SARS-CoV-2 Lambda (SARS-CoV-2 Lambda)"}, "Bat CoV BANAL-52 [8]": {"molecular_target": "Bat CoV BANAL-52"}, "SARS-CoV-2 Gamma [9]": {"molecular_target": "SARS-CoV-2 Gamma"}, "Bat CoV BANAL-52 [10]": {"molecular_target": "Bat CoV BANAL-52", "remark": "listed apart in the source"}, "SARS-CoV-1 [11]": {"molecular_target": "SARS-CoV-1", "remark": "listed apart in the source"}, "[12]": {"molecular_target": "Bat CoV RsSHC014 (SC1r-CoV RsSHC014)"}, "[13]": {"molecular_target": "SARS-CoV-2 Lambda (SARS-CoV-2 Lambda)", "remark": "listed apart in the source"}, "[14]": {"molecular_target": "Bat CoV Rs2018B (SC1r-CoV Rs2018B)"}, "[15]": {"molecular_target": "Bat CoV WIV-1 (SC1r-CoV WIV-1)"}, "SARS-CoV-2 Mu [16]": {"molecular_target": "SARS-CoV-2 Mu", "remark": "listed apart in the source"}, "SARS-CoV-2 Gamma [17]": {"molecular_target": "SARS-CoV-2 Gamma", "remark": "listed apart in the source"}}, "note": "Where two headings read alike, the source gives them in different places."}
{"substance": "CR3022", "values": [{"measurement": "IC50", "setting": "SARS-CoV-1 [1]", "result": 0.397, "unit": "µg/mL"}]}
{"substance": "CR3022 (antibody)", "values": [{"measurement": "Binding SARS-CoV-1", "setting": "[2]", "result": 1.19}, {"measurement": "Binding SARS-CoV-2", "setting": "[3]", "result": 1.46}, {"measurement": "sVNT SARS-CoV-2 (% I)", "setting": "[4]", "result": 24.2, "unit": "%"}, {"measurement": "sVNT SARS-CoV-1 (% I)", "setting": "[5]", "result": 32.5, "unit": "%"}]}
{"substance": "LyCoV-1404", "values": [{"measurement": "IC50", "setting": "SARS-CoV-2 Mu [6]", "result": 0.067, "unit": "µg/mL"}, {"measurement": "IC50", "setting": "[7]", "result": 0.077, "unit": "µg/mL"}, {"measurement": "IC50", "setting": "Bat CoV BANAL-52 [8]", "result": 0.12, "unit": "µg/mL"}]}
{"substance": "LyCoV-1404 (Eli Lily) (antibody)", "values": [{"measurement": "Binding SARS-CoV-1", "setting": "[2]", "result": 1.54}, {"measurement": "Binding SARS-CoV-2", "setting": "[3]", "result": 0.445}, {"measurement": "sVNT SARS-CoV-2 (% I)", "setting": "[4]", "result": 0.144, "unit": "%"}, {"measurement": "sVNT SARS-CoV-1 (% I)", "setting": "[5]", "result": 94.5, "unit": "%"}]}
{"substance": "S2X259", "values": [{"measurement": "IC50", "setting": "SARS-CoV-2 Gamma [9]", "result": 0.102, "unit": "µg/mL"}, {"measurement": "IC50", "setting": "Bat CoV BANAL-52 [10]", "result": 0.097, "unit": "µg/mL"}, {"measurement": "IC50", "setting": "SARS-CoV-1 [11]", "result": 0.871, "unit": "µg/mL"}, {"measurement": "IC50", "setting": "[12]", "result": 0.133, "unit": "µg/mL"}, {"measurement": "IC50", "setting": "[13]", "result": 0.047, "unit": "µg/mL"}, {"measurement": "IC50", "setting": "Bat CoV LYRa11", "result": 0.073, "unit": "µg/mL"}, {"measurement": "IC50", "setting": "[14]", "result": 0.142, "unit": "µg/mL"}, {"measurement": "IC50", "setting": "[15]", "result": 0.117, "unit": "µg/mL"}, {"measurement": "IC50", "setting": "Pangolin CoV GD-1", "result": 0.112, "unit": "µg/mL"}, {"measurement": "IC50", "setting": "SARS-CoV-2 Mu [16]", "result": 0.067, "unit": "µg/mL"}]}
{"substance": "S2X259 (VirBiotech) (antibody)", "values": [{"measurement": "Binding SARS-CoV-1", "setting": "[2]", "result": 0.973}, {"measurement": "Binding SARS-CoV-2", "setting": "[3]", "result": 1.73}, {"measurement": "sVNT SARS-CoV-2 (% I)", "setting": "[4]", "result": 94, "unit": "%"}, {"measurement": "sVNT SARS-CoV-1 (% I)", "setting": "[5]", "result": 92.8, "unit": "%"}]}
{"substance": "S309", "values": [{"measurement": "IC50", "setting": "SARS-CoV-2 Delta", "result": 0.199, "unit": "µg/mL"}, {"measurement": "IC50", "setting": "SARS-CoV-2 Gamma [17]", "result": 0.172, "unit": "µg/mL"}, {"measurement": "IC50", "setting": "SARS-CoV-2 Delta Plus", "result": 0.24, "unit": "µg/mL"}]}
{"substance": "S309 (Sotrovimab, GSK) (antibody)", "values": [{"measurement": "Binding SARS-CoV-1", "setting": "[2]", "result": 1.22}, {"measurement": "Binding SARS-CoV-2", "setting": "[3]", "result": 1.55}, {"measurement": "sVNT SARS-CoV-2 (% I)", "setting": "[4]", "result": 39.6, "unit": "%"}, {"measurement": "sVNT SARS-CoV-1 (% I)", "setting": "[5]", "result": 36.5, "unit": "%"}]}
